Test [1] addresses Allochromatium vinosum DsrC Cys100Ser (Allochromatium vinosum). Put plainly: SEC. (In general: SEC sorts molecules by how far they enter the pores of the column.)
Test [2] addresses Allochromatium vinosum DsrC, wild type, recombinant with amino-terminal His tag (Allochromatium vinosum). The test is described as follows: SEC.

On to “Allochromatium vinosum DsrC Cys100Ser (natural protein)”, for which, in test [1], the stoichiometry N was found to be 2. “Allochromatium vinosum DsrC, wild type, recombinant with amino-terminal His tag (natural protein)”: the stoichiometry N in test [2] stood at 2.

One may read the stoichiometry N as the number of molecules, sites or subunits per partner or assembly.

Values taken from publication PMC2637153.
